Laboratory results as given in patent US11103555B2, “Compositions and methods for reducing tumor cell growth at a site of solid tumor excision” (The Pacific Heart, Lung, & Blood Institute, priority 2016, dated 2021).

Tested on: melanoma
Assay: Treatment of patients with melanoma
Type: in vivo
Procedure: 100 patients are diagnosed with melanoma and subject to IL-12 recombinant protein injection at the tumor site. Patients receive either vehicle injections, 250 ng/kg/day of IL-12 or 500 ng/kg/day of IL-12 per treatment every three days for a week. […] By 5 years post-surgery, 40% of the patients who undergo IL-12 therapy have a relapse of […], and have 60% survival rate.
100 patients are diagnosed with melanoma and are administered genetically modified stem cells expressing IL-12 by intracavitary infusion. Tumor size is monitored by PET scan, and at the end of six months, the tumor size is reduced.

B1: IL-12: IL-12 recombinant protein injected at the tumor site (protein, listed as Homo sapiens)
chain 1: MCHQQLVISWFSLVFLASPLVAIWELKKDVYVVELDWYPDAPGEMVVLTCDTPEEDGITWTLDQSSEVLGSGKTLTIQVKEFGDAGQYTCHKGGEVLSHSLLLLHKKEDGIWSTDILKDQKEPKNKTFLRCEAKNYSGRFTCWWLTTISTDLTFSVKSSRGSSDPQGVTCGAATLSAERVRGDNKEYEYSVECQEDSACPAAEESLPIEVMVDAVHKLKYENYTSSFFIRDIIKPDPPKNLQLKPLKNSRQVEVSWEYPDTWSTPHSYFSLTFCVQVQGKSKREKKDRVFTDKTSATVICRKNASISVRAQDRYYSSSWSEWASVPCS
chain 2: MWPPGSASQPPPSPAAATGLHPAARPVSLQCRLSMCPARSLLLVATLVLLDHLSLARNLPVATPDPGMFPCLHHSQNLLRAVSNMLQKARQTLEFYPCTSEEIDHEDITKDKTSTVEACLPLELTKNESCLNSRETSFITNGSCLASRKTSFMMALCLSSIYEDLKMYQVEFKTMNAKLLMDPKRQIFLDQNMLAVIDELMQALNFNSETVPQKSSLEEPDFYKTKIKLCILLHAFRIRAVTIDRVMSYLNAS
tumor size by PET scan, higher dose (500 ng/kg/day versus 250 ng/kg/day or vehicle): greater reduction in tumor size than the lower dose or vehicle injected patients | tumor size by PET scan (IL-12 recombinant protein injection at the tumor site, 250 or 500 ng/kg/day every three days for a week, versus vehicle): reduced tumor size | patients with relapse (by 5 years): 40% | survival rate (by 5 years): 60% | T cell activation and immune cell infiltration in biopsies of injected lesions (versus vehicle injections): more T cell activation and immune cell infiltration
